Measurements: patent US20220195053A1 (SURROZEN OPERATING, published 2022)

Columns and labels:
[1] = biological target: T1, Mucin 13, cell surface associated (MUC-13), on human intestine HT29 cells (human, UniProt Q9H3R2 19-512); assay: Flow cytometry (FACS) on MUC-13 expressing HT29 cells, antibody at 10 nM, fluorescent goat anti-human secondary antibody, compared with the anti-GFP IgG control. MUC-13 negative HEK293 cells serve as the specificity control.
T1 construct: whole, on cells
T1 sequence (looked up): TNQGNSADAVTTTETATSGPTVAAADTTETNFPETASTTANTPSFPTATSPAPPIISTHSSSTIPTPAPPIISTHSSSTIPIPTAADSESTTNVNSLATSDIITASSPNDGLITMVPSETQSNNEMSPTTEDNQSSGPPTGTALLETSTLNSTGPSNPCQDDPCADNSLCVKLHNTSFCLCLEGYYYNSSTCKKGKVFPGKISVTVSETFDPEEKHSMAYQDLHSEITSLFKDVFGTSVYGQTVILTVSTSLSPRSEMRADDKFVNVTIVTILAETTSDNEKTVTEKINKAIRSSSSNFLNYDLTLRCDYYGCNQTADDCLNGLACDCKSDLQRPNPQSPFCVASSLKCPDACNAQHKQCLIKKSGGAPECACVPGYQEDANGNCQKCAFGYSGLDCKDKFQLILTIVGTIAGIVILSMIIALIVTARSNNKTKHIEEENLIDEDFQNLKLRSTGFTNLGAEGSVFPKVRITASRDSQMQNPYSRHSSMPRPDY
Procedure: (§1) Cell surface binding of the MUC-13 antibodies was examined by FACS at 10 nM.
(§2) The MUC-13 binders C4, C7, and C14 (see, e.g., WO2016168607A1) were cloned and produced in the full-length IgG format and their binding capacity to MUC-13 was determined by FACS analysis to MUC-13 expressing HT29 cells. Their potential binding to MUC-13 non-expressing HEK293 cells was also analyzed as a negative control. Cells were harvested and washed 2× with FACS buffer (PBS (—Ca²⁺, —Mg²⁺), 0.1% BSA, 0.5% sodium Azide) and resuspended in FACS buffer at 10⁶ cells/ml. 60 μl of the cell suspension was aliquoted to each well of a 96-well v bottom plate, and the plate was spun for 3 min at 1500 rpm to remove the FACS buffer before adding corresponding MUC-13 antibody or anti-GFP control antibody at 10 nM diluted in FACS buffer and incubated at 4C for 1 hour. Plate was then spun to remove the primary antibodies and washed 1× with FACS buffer before adding Alexa Fluor® 488 goat anti-human secondary antibody (ThermoFisher Scientific) and incubating at 4C for 30 min. This media was then removed after spinning, and the plate washed 1× in FACS buffer. Cells were then resuspended in […] FACS buffer and analyzed on a BD Accuri™ Cell Analyzers (Becton Dickinson) at 10,000 events. […]

[2] = biological target: T1, Mucin 13, cell surface associated …; assay: Flow cytometry (FACS) on MUC-13 expressing HT29 cells, antibody at 10 nM, compared with the anti-GFP IgG control. HEK293 cells serve as the MUC-13 negative control.
Procedure: as §1, §2

B1: C14 MUC-13 antibody, full-length IgG format (antibody, V domains shown)
VH: QVQLQQSGAELVRPGSSVKISCKASGYAFSTYWMNWVKQRPGQGLEWIGQIYPGDGDTYYNGNFKGKATLTADKSSSTAYMQLSSLTSEDSAVYFCAVFWDGYWGQGTTLTVSS
VL: QIVLTQSPTIMSASPGEKVTMTCSASSSVTYIHWYQQKSGTSPKRWIYDTSKLASGVPARFGGSGSGTSYSLTINSMETEDAATYYCQQWSSNPFTFGSGTKLEIKR
Q: Does B1 bind [1]?
A: binds

B2: C4 MUC-13 antibody, full-length IgG format (antibody, V domains shown)
VH: DVQLQESGPGLVKPSQSLSLTCSVTGYSITSGYYWNWIRQFPGNKLEWMGYISYDGSNNYNPSLKNRISITRDTSKNQFFLKLNSVTTEDTATYYCVRVPTMITSYYFDYWGQGTTLTVSS
VL: QIVLTQSPAIMSASPGEKVTISCSASSSVGYIYWYQQKPGSSPKPWIYRTSNLASGVPARFSGSGSGTSYSLTISSMEAEDAATYYCQQYHSYPPTFGGGTKLEIKR
Q: Does B2 bind [2]?
A: no binding (tested: 10 nM)
